Laboratory results from patent US20100048604A1, “Ligands for Aldoketoreductases” (priority 2004, published 2010).

Legend:
Test in all cases: Steady state kinetic parameters of fluorogenic substrates with purified AKR1C isozymes
Type in all cases: biochemical, human
Details in all cases: other: isozyme 1C2, potassium phosphate buffer pH 6, NADPH, fluorimetric
[1] = substrate: CC(=O)c1cc(=O)oc2c3c(ccc12)NCCC3
From the text: (§1) AKR1C2 and AKR1C3 Selective Probes: Probes (5a-5i) were examined as substrates for the four purified human HSD isozymes (AKR1C1-AKR1C4) under standard assay conditions [catalytic quantities of enzyme, an excess of cofactor (NADPH)]. The initial reaction rates were used to derive standard kinetic parameters (kcat and Km, Materials and Methods).
(§2) Substrate tolerance of AKR1Cs: Isozyme Activity with 5a-5i: Activity of the second generation of fluorogenic substrates with the AKR1C isozymes was determined as follows. To a STARNA semi-micro fluorimeter cell (with 4 polished windows) was added 100 μL of 1 M potassium phosphate buffer (pH 6), 840 μL doubly deionized water, and 20 μL of 12.5 mM NADPH. After mixing the aqueous components thoroughly, 20 μL of acetonitrile was added as a cosolvent and mixed well. 20 μL of 2.5 mM second generation fluorogenic ketone in acetonitrile (5a-5i) was then added and mixed. 4 μL of undiluted AKR1C (provided generously by the Penning lab at concentrations of 2.5 mg/mL) were then added to the cuvette for a total of 10 μg purified enzyme in the 1 mL assay volume. Fluorescence arising from the respective alcohol reduction product was then monitored over the course of 5-10 minutes.
(§3) Binding constant and catalytic rates (Km and kcat) of the second generation of fluorogenic substrates was determined as follows. To a STARNA semi-micro fluorometer cell (with 4 polished windows) was added 100 μL of 1 M potassium phosphate buffer (pH 6), 840 μL doubly deionized water, and 20 AL of 12.5 mM NADPH. After mixing the aqueous components thoroughly, 20 μL of acetonitrile was added as a cosolvent and mixed well. 20 μL of the second generation fluorogenic ketone (5a-5i) was then added and mixed to achieve assay concentrations of 5Km to Km/5. To initiate the reduction, 2 or 4 μL of diluted AKR1C (1:2 to 1:100, depending on the kinetics of a particular isozyme's reduction of a substrate) was then added to the cuvette. Fluorescence arising from the respective alcohol reduction product was then monitored over the course of 3 minutes (Excitation and emission band pass slits both at 4 nm, lamp 700 V, λexc 410 nm, λem 510). The rate of product formation, expressed in units of nanomoles per minute, were calculated according to previously published procedures (Wierzchowski, J.; Dafeldecker, W. P.; Holmquist, B.; Vallee, B. L. Anal. Biochem. 1989, 178, 57-62):
(§4) initial rate=[nst×(Ft−F0)/(Fst)]/t (1)
(§5) where Ft and F0 represent the fluorescence at times t and 0 minutes, nst is the nanomoles of product in a known concentration of product, and Fst is the fluorescence resulting from nst of product. Kinetic parameters were approximated by GraFit (Erithacus Software, Surrey, UK) nonlinear regression analysis program to fit the untransformed data to a hyperbolic function as originally described (Wierzchowski, J.; Dafeldecker, W. P.; Holmquist, B.; Vallee, B. L. Anal. Biochem. 1989, 178, 57-62). Reported enzymatic kinetic parameters are the average of three independent determinations from three different preparations of substrate and enzyme.

[2] = substrate: CC(=O)c1cc(=O)oc2c3c4c(cc12)CCCN4CCC3
From the text: as §1, §2, §3, §4, §5

[3] = substrate: CC(=O)c1cc(=O)oc2cc(N(C)C)ccc12
From the text: as §1, §2, §3, §4, §5

[4] = substrate: O=C1CCc2c1c1cc3c4c(c1oc2=O)CCCN4CCC3
From the text: as §1, §2, §3, §4, §5

[5] = substrate: O=C(c1ccccc1)c1cc(=O)oc2c3c4c(cc12)CCCN4CCC3
From the text: as §1, §2, §3, §4, §5

[6] = substrate: CC(=O)c1cc(=O)oc2cc3c(cc12)CCCN3
From the text: as §1, §2, §3, §4, §5

B1: AKR1C2 (Homo sapiens) (protein)
chain: MDSKYQCVKLNDGHFMPVLGFGTYAPAEVPKSKALEAVKLAIEAGFHHIDSAHVYNNEEQVGLAIRSKIADGSVKREDIFYTSKLWSNSHRPELVRPALERSLKNLQLDYVDLYLIHFPVSVKPGEEVIPKDENGKILFDTVDLCATWEAMEKCKDAGLAKSIGVSNFNHRLLEMILNKPGLKYKPVCNQVECHPYFNQRKLLDFCKSKDIVLVAYSALGSHREEPWVDPNSPVLLEDPVLCALAKKHKRTPALIALRYQLQRGVVVLAKSYNEQRIRQNVQVFEFQLTSEEMKAIDGLNRNVRYLTLDIFAGPPNYPFSDEY
notes: gift of the Penning lab (University of Pennsylvania School of Medicine)
- Km [1]: 4.8 µM
- Km [2]: 7.3 µM
- Km [3]: 7.2 µM
- Km [4]: 4.5 µM
- kcat [4]: 1.6 0.40 7.2 no activity
- kcat/Km [4]: 0.39 0.08 56 min^−1 μM^−1
- Km [5]: 3 µM
- Km [6]: 43.3 ± 4.4 4.3 ± 0.2 μM
